Source: patent publication US20230265151A1, “GIP/GLP1 CO-AGONIST COMPOUNDS” (priority 2020, published 2023)
Residue numbers refer to the chain shown, from its start.

T1: human glucose-dependent insulinotropic polypeptide (GIP) receptor (human, UniProt P48546 22-466)
T1 sequence (looked up): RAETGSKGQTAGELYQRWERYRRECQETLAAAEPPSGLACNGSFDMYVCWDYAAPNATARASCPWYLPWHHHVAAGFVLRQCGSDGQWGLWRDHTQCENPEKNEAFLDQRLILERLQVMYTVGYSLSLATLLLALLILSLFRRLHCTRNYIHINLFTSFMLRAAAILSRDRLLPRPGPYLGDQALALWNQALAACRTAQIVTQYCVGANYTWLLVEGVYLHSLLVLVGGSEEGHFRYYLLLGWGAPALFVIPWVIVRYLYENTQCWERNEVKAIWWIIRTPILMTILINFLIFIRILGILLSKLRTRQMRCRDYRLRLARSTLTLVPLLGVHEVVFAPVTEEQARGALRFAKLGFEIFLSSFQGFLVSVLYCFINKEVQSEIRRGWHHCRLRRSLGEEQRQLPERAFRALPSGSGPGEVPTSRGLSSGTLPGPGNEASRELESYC

T2: human GIP receptor (human, UniProt P48546 22-466)
T2 sequence (looked up): T1 sequence (looked up)

B1: Example 250 (peptide)
peptide: YXEGTXTSDXSIXLDXKAQXEFIXXLIKGGPSSGAPPPS
modifications: Aib2, αMeF(2F)6, 2Nal10, αMeL13, Orn16, K17(Z), Aib20, D-Glu24, αMeY25, K28(Z), C-terminal NH2; Z = AEEA2-(γ-Glu)-CO-(CH2)12-CO2H
B2: Example 251 (peptide)
peptide: YXEGTXTSDXSIXLDXKAQXEFIXXLIEGGPSSGAPPPSK
modifications: Aib2, αMeF(2F)6, 2Nal10, αMeL13, Orn16, K17(Z), Aib20, D-Glu24, αMeY25, K40(Z), C-terminal NH2; Z = AEEA2-(γ-Glu)-CO-(CH2)12-CO2H
B3: Example 252 (peptide)
peptide: B1 peptide with K17I, X24K
modifications: Aib2, αMeF(2F)6, 2Nal10, αMeL13, Orn16, Aib20, K24(Z), αMeY25, K28(Z), C-terminal NH2; Z = AEEA2-(γ-Glu)-CO-(CH2)12-CO2H
B4: Example 253 (peptide)
peptide: B1 peptide with K17I, E21K
modifications: Aib2, αMeF(2F)6, 2Nal10, αMeL13, Orn16, Aib20, K21(Z), D-Glu24, αMeY25, K28(Z), C-terminal NH2; Z = AEEA2-(γ-Glu)-CO-(CH2)12-CO2H
B5: Example 254 (peptide)
peptide: B2 peptide with K17I, E21K
modifications: Aib2, αMeF(2F)6, 2Nal10, αMeL13, Orn16, Aib20, K21(Z), D-Glu24, αMeY25, K40(Z), C-terminal NH2; Z = AEEA2-(γ-Glu)-CO-(CH2)12-CO2H
B6: Example 255 (peptide)
peptide: B1 peptide with E21K, K28E
modifications: Aib2, αMeF(2F)6, 2Nal10, αMeL13, Orn16, K17(Z), Aib20, K21(Z), D-Glu24, αMeY25, C-terminal NH2; Z = AEEA2-CO-(CH2)12-CO2H
B7: Example 256 (peptide)
peptide: B1 peptide
modifications: Aib2, αMeF(2F)6, 2Nal10, αMeL13, Orn16, K17(Z), Aib20, D-Glu24, αMeY25, K28(Z), C-terminal NH2; Z = AEEA2-CO-(CH2)12-CO2H
B8: Example 257 (peptide)
peptide: B2 peptide
modifications: Aib2, αMeF(2F)6, 2Nal10, αMeL13, Orn16, K17(Z), Aib20, D-Glu24, αMeY25, K40(Z), C-terminal NH2; Z = AEEA2-CO-(CH2)12-CO2H
B9: Example 258 (peptide)
peptide: B2 peptide with K17I, E21K
modifications: Aib2, αMeF(2F)6, 2Nal10, αMeL13, Orn16, Aib20, K21(Z), D-Glu24, αMeY25, K40(Z), C-terminal NH2; Z = AEEA2-CO-(CH2)12-CO2H
B10: Example 259 (peptide)
peptide: B1 peptide with E21K, K28E
modifications: Aib2, αMeF(2F)6, OMeY10, αMeL13, Orn16, K17(Z), Aib20, K21(Z), D-Glu24, αMeY25, C-terminal NH2; Z = AEEA2-(γ-Glu)-CO-(CH2)12-CO2H
B11: Y-Aib-EGT-αMeF(2F)-TSD-4Pal-SI-αMeL-LD-Orn-IAQ-Aib-EFIK((2-[2-(2-Amino-ethoxy)-ethoxy]-acetyl)2-(γ-Glu)-CO-(CH2)12-CO2H)-αMeY-LIK((2-[2-(2-Amino-ethoxy)-ethoxy] … (peptide)
peptide: B1 peptide with K17I, X24K
modifications: Aib2, αMeF(2F)6, 4Pal10, αMeL13, Orn16, Aib20, αMeY25; acylated K24, K28 (groups as in name); C-terminal amide
B12: Y-Aib-EGT-αMeF(2F)-TSD-4Pal-SI-αMeL-LD-Orn-IAQ-Aib-EFIK((2-[2-(2-Amino-ethoxy)-ethoxy]-acetyl)2-(γ-Glu)-CO-(CH2)12-CO2H)-αMeY-LIEGGK((2-[2-(2-Amino-ethoxy)-etho … (peptide)
peptide: B1 peptide with K17I, X24K, K28E, P31K
modifications: Aib2, αMeF(2F)6, 4Pal10, αMeL13, Orn16, Aib20, αMeY25; acylated K24, K31 (groups as in name); C-terminal amide
B13: Y-Aib-EGT-αMeF(2F)-TSD-4Pal-SI-αMeL-LD-Orn-IAQ-Aib-K((2-[2-(2-Amino-ethoxy)-ethoxy]-acetyl)2-(γ-Glu)-CO-(CH2)12-CO2H)FI-(D-Glu)-αMeY-LIEGGK((2-[2-(2-Amino-ethox … (peptide)
peptide: B1 peptide with K17I, E21K, K28E, P31K
modifications: Aib2, αMeF(2F)6, 4Pal10, αMeL13, Orn16, Aib20, D-Glu24, αMeY25; acylated K21, K31 (groups as in name); C-terminal amide
B14: Y-Aib-EGT-αMeF-TSD-4Pal-SI-αMeL-LD-Orn-K((2-[2-(2-Amino-ethoxy)-ethoxy]-acetyl)2-(γ-Glu)-CO-(CH2)10-CH3)AQ-Aib-E-αMeF-I-(D-Glu)-αMeY-LIEGGK((2-[2-(2-Amino-ethox … (peptide)
peptide: B1 peptide with F22X, K28E, P31K
modifications: Aib2, αMeF6, 4Pal10, αMeL13, Orn16, Aib20, αMeF22, D-Glu24, αMeY25; acylated K17, K31 (groups as in name); C-terminal amide
B15: Y-Aib-EGT-αMeF(2F)-TSD-4Pal-SI-αMeL-LD-Orn-IAQ-Aib-EFIK((2-[2-(2-Amino-ethoxy)-ethoxy]-acetyl)2-CO-(CH2)12-CO2H)-αMeY-LIK((2-[2-(2-Amino-ethoxy)-ethoxy]-acetyl) … (peptide)
peptide: B1 peptide with K17I, X24K
modifications: Aib2, αMeF(2F)6, 4Pal10, αMeL13, Orn16, Aib20, αMeY25; acylated K24, K28 (groups as in name); C-terminal amide
B16: Y-Aib-EGT-αMeF(2F)-TSD-4Pal-SI-αMeL-LD-Orn-IAQ-Aib-EFIK((2-[2-(2-Amino-ethoxy)-ethoxy]-acetyl)2-CO-(CH2)12-CO2H)-αMeY-LIEGGK((2-[2-(2-Amino-ethoxy)-ethoxy]-acet … (peptide)
peptide: B1 peptide with K17I, X24K, K28E, P31K
modifications: Aib2, αMeF(2F)6, 4Pal10, αMeL13, Orn16, Aib20, αMeY25; acylated K24, K31 (groups as in name); C-terminal amide
B17: Y-Aib-EGT-αMeF(2F)-TSD-4Pal-SI-αMeL-LD-Orn-IAQ-Aib-K((2-[2-(2-Amino-ethoxy)-ethoxy]-acetyl)2-CO-(CH2)12-CO2H)FI-(D-Glu)-αMeY-LIEGGK((2-[2-(2-Amino-ethoxy)-ethox … (peptide)
peptide: B1 peptide with K17I, E21K, K28E, P31K
modifications: Aib2, αMeF(2F)6, 4Pal10, αMeL13, Orn16, Aib20, D-Glu24, αMeY25; acylated K21, K31 (groups as in name); C-terminal amide
B18: Y-Aib-EGT-αMeF(2F)-TSD-4Pal-SI-αMeL-LD-Orn-IAQ-Aib-EFIK((εK)-(γ-Glu)-CO-(CH2)12-CO2H)-αMeY-LIEGGK((εK)-(γ-Glu)-CO-(CH2)12-CO2H)SSGAPPPS-NH2 (peptide)
peptide: B1 peptide with K17I, X24K, K28E, P31K
modifications: Aib2, αMeF(2F)6, 4Pal10, αMeL13, Orn16, Aib20, αMeY25; acylated K24, K31 (groups as in name); C-terminal amide
B19: Y-Aib-EGT-αMeF(2F)-TSD-4Pal-SI-αMeL-LD-Orn-IAQ-Aib-EFIK((εK)-(εK)-(γ-Glu)-CO-(CH2)12-CO2H)-αMeY-LIEGGK((εK)-(εK)-(γ-Glu)-CO-(CH2)12-CO2H)SSGAPPPS-NH2 (peptide)
peptide: B1 peptide with K17I, X24K, K28E, P31K
modifications: Aib2, αMeF(2F)6, 4Pal10, αMeL13, Orn16, Aib20, αMeY25; acylated K24, K31 (groups as in name); C-terminal amide
B20: Y-Aib-EGT-αMeF(2F)-TSD-4Pal-SI-αMeL-LD-Orn-IAQ-Aib-EFIK((2-[2-(2-Amino-ethoxy)-ethoxy]-acetyl)2-(γ-Glu)-(4-(4-tert-butylphenyl)butanoyl))-αMeY-LIK((2-[2-(2-Amin … (peptide)
peptide: B1 peptide with K17I, X24K
modifications: Aib2, αMeF(2F)6, 4Pal10, αMeL13, Orn16, Aib20, αMeY25; acylated K24, K28 (groups as in name); C-terminal amide

Tests used:
Assay in all cases: cell-based or functional assay
human glucagon receptor [1] = target: human glucagon receptor (human, UniProt P47871 26-477)
[2] = target: human glucagon-like peptide-1 (GLP-1) receptor (human, UniProt P43220 24-463)
[3] = target: T1, human glucose-dependent insulinotropic …
human glucagon receptor [4] = target: human glucagon receptor (human, UniProt P47871 26-477); remark: listed apart in the source
human GIP receptor = target: T2, human GIP receptor

Binder | cAMP EC50 (human glucagon receptor [1]) | cAMP EC50 [2] | cAMP EC50 [3] | cAMP Emax [2] | cAMP Emax [3] | cAMP EC50 (1.0% HSA) (human glucagon receptor [4]) | cAMP EC50 (1.0% HSA) (human GIP receptor)
B1 | > 9950 nM | 0.414 nM | 0.021 nM |  |  |  | 
B2 | > 9950 nM | 0.338 nM | 0.0305 nM |  |  |  | 
B3 | > 9950 nM | 0.555 nM | 0.049 nM |  |  |  | 
B4 | > 9950 nM | 0.43 nM | 0.0295 nM |  |  |  | 
B5 | > 9950 nM | 0.507 nM | 0.0273 nM |  |  |  | 
B6 | > 9950 nM | 0.357 nM | 0.0213 nM |  |  |  | 
B7 | > 9950 nM | 0.249 nM | 0.0175 nM |  |  |  | 
B8 | > 9950 nM | 2.03 nM | 0.148 nM | 82% |  |  | 
B9 | > 9950 nM | 0.653 nM | 0.0473 nM |  | 90.3% |  | 
B10 | > 9950 nM | 0.362 nM | 0.0198 nM |  |  |  | 
B11 |  |  |  |  |  | > 9950 nM | 1.73 nM
B12 |  |  |  |  |  | > 9950 nM | 3.07 nM
B13 |  |  |  |  |  | > 9950 nM | 2.19 nM
B14 |  |  |  |  |  | > 9950 nM | 1.24 nM
B15 |  |  |  |  |  | > 9950 nM | 0.832 nM
B16 |  |  |  |  |  | > 9950 nM | 1.47 nM
B17 |  |  |  |  |  | > 9950 nM | 0.771 nM
B18 |  |  |  |  |  | > 9950 nM | 2.06 nM
B19 |  |  |  |  |  | > 9950 nM | 1.06 nM
B20 |  |  |  |  |  | > 9950 nM | 0.682 nM
